Results: doi:10.1101/2023.04.07.535877

How the values were obtained:
[1] = molecular target: glutamine synthetase type I-α from Methanothermococcus thermolithotrophicus (Methanothermococcus thermolithotrophicus (endogenous, DSM 2095)); test: native gel or EMSA
[2] = molecular target: glutamine synthetase type I-α from Methanothermococcus thermolithotrophicus (Methanothermococcus thermolithotrophicus (endogenous, DSM 2095)); test: crystal structure
[3] = molecular target: glutamine synthetase type I-α from Methermicoccus shengliensis (Methermicoccus shengliensis (endogenous, ZC-1, DSM 18856)); test: native gel or EMSA
[4] = molecular target: glutamine synthetase type I-α from Methermicoccus shengliensis (Methermicoccus shengliensis (endogenous, ZC-1, DSM 18856)); test: crystal structure

Row | Substance | stoichiometry N [1] | stoichiometry N [2] | stoichiometry N [3] | stoichiometry N [4]
1 | glutamine synthetase type I-α from Methanothermococcus thermolithotrophicus (enzyme) | 12 | 12 |  | 
2 | glutamine synthetase type I-α from Methermicoccus shengliensis (enzyme) |  |  | 12 | 12
